Data taken from patent publication US20200087373A1 (UNIVERSITY OF COPENHAGEN, published 2020).
Numbered stars: 1 amine (or outer) side, 2 acyl side, 3 side chain; on linkers, the order of the positions; unused ones are H or OH. Side chains are listed from the residue outwards. Ends that are not written are not given here. * marks the point of attachment. C16 diacid = O=C(O)CCCCCCCCCCCCCCC(=O)*; γGlu = O=C(O)[C@H](CCC(=O)[*:2])N[*:1]; Palmitoyl = CCCCCCCCCCCCCCCC(=O)*; AEEA = NCCOCCOCC(=O)O; GABA = NCCCC(=O)O; βAla = NCCC(=O)O

T1: human GIP receptor (human, UniProt P48546 22-466)
T1 sequence (looked up): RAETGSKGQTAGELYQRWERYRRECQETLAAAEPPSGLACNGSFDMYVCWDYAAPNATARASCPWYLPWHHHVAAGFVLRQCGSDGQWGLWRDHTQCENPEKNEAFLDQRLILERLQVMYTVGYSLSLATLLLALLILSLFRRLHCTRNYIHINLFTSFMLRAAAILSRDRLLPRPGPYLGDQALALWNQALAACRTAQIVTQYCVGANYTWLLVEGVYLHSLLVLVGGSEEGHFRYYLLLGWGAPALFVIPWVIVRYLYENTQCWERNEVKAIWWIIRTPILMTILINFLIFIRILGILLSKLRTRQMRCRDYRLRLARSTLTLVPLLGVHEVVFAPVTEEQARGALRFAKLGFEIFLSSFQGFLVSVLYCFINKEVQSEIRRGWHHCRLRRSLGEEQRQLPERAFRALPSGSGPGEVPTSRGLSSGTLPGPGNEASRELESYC

B1: AT109 (E3pGlu, C16 at position 16) (peptide)
peptide: EGTFISDYSIAMDKIHQQDFVNWLLAQK
modifications: pyroglutamic acid (pGlu) in place of Glu at position 3 in GIP numbering (residue 1 of the entry); C16 (palmitoyl) fatty acid on Lys at position 16 (residue 14 of the entry); C-terminal amide taken from the series hGIP(3-30)NH2
B2: AT164 [hGIP(3-30)NH2[H18K]-C16/18+y-glutamic acid] (peptide)
peptide: EGTFISDYSIAMDKIK([γGlu-Palmitoyl])QQDFVNWLLAQK-NH2
modifications: N-terminus assumed
SMILES: CCCCCCCCCCCCCCCC(=O)N[C@@H](CCC(=O)NCCCC[C@H](NC(=O)[C@@H](NC(=O)[C@H](CCCCN)NC(=O)[C@H](CC(=O)O)NC(=O)[C@H](CCSC)NC(=O)[C@H](C)NC(=O)[C@@H](NC(=O)[C@H](CO)NC(=O)[C@H](Cc1ccc(O)cc1)NC(=O)[C@H](CC(=O)O)NC(=O)[C@H](CO)NC(=O)[C@@H](NC(=O)[C@H](Cc1ccccc1)NC(=O)[C@@H](NC(=O)CNC(=O)[C@@H](N)CCC(=O)O)[C@@H](C)O)[C@@H](C)CC)[C@@H](C)CC)[C@@H](C)CC)C(=O)N[C@@H](CCC(N)=O)C(=O)N[C@@H](CCC(N)=O)C(=O)N[C@@H](CC(=O)O)C(=O)N[C@@H](Cc1ccccc1)C(=O)N[C@H](C(=O)N[C@@H](CC(N)=O)C(=O)N[C@@H](Cc1c[nH]c2ccccc12)C(=O)N[C@@H](CC(C)C)C(=O)N[C@@H](CC(C)C)C(=O)N[C@@H](C)C(=O)N[C@@H](CCC(N)=O)C(=O)N[C@@H](CCCCN)C(N)=O)C(C)C)C(=O)O
B3: AT166 [hGIP(3-30)NH2[H18K]-C16/18+β-alanine] (peptide)
peptide: EGTFISDYSIAMDKIK([βAla-Palmitoyl])QQDFVNWLLAQK-NH2
modifications: N-terminus assumed
SMILES: CCCCCCCCCCCCCCCC(=O)NCCC(=O)NCCCC[C@H](NC(=O)[C@@H](NC(=O)[C@H](CCCCN)NC(=O)[C@H](CC(=O)O)NC(=O)[C@H](CCSC)NC(=O)[C@H](C)NC(=O)[C@@H](NC(=O)[C@H](CO)NC(=O)[C@H](Cc1ccc(O)cc1)NC(=O)[C@H](CC(=O)O)NC(=O)[C@H](CO)NC(=O)[C@@H](NC(=O)[C@H](Cc1ccccc1)NC(=O)[C@@H](NC(=O)CNC(=O)[C@@H](N)CCC(=O)O)[C@@H](C)O)[C@@H](C)CC)[C@@H](C)CC)[C@@H](C)CC)C(=O)N[C@@H](CCC(N)=O)C(=O)N[C@@H](CCC(N)=O)C(=O)N[C@@H](CC(=O)O)C(=O)N[C@@H](Cc1ccccc1)C(=O)N[C@H](C(=O)N[C@@H](CC(N)=O)C(=O)N[C@@H](Cc1c[nH]c2ccccc12)C(=O)N[C@@H](CC(C)C)C(=O)N[C@@H](CC(C)C)C(=O)N[C@@H](C)C(=O)N[C@@H](CCC(N)=O)C(=O)N[C@@H](CCCCN)C(N)=O)C(C)C
B4: AT117 [hGIP(3-30)NH2[H18K]-C16/18] (peptide)
peptide: EGTFISDYSIAMDKIK(Palmitoyl)QQDFVNWLLAQK-NH2
modifications: N-terminus assumed
SMILES: CCCCCCCCCCCCCCCC(=O)NCCCC[C@H](NC(=O)[C@@H](NC(=O)[C@H](CCCCN)NC(=O)[C@H](CC(=O)O)NC(=O)[C@H](CCSC)NC(=O)[C@H](C)NC(=O)[C@@H](NC(=O)[C@H](CO)NC(=O)[C@H](Cc1ccc(O)cc1)NC(=O)[C@H](CC(=O)O)NC(=O)[C@H](CO)NC(=O)[C@@H](NC(=O)[C@H](Cc1ccccc1)NC(=O)[C@@H](NC(=O)CNC(=O)[C@@H](N)CCC(=O)O)[C@@H](C)O)[C@@H](C)CC)[C@@H](C)CC)[C@@H](C)CC)C(=O)N[C@@H](CCC(N)=O)C(=O)N[C@@H](CCC(N)=O)C(=O)N[C@@H](CC(=O)O)C(=O)N[C@@H](Cc1ccccc1)C(=O)N[C@H](C(=O)N[C@@H](CC(N)=O)C(=O)N[C@@H](Cc1c[nH]c2ccccc12)C(=O)N[C@@H](CC(C)C)C(=O)N[C@@H](CC(C)C)C(=O)N[C@@H](C)C(=O)N[C@@H](CCC(N)=O)C(=O)N[C@@H](CCCCN)C(N)=O)C(C)C
B5: AT131 [hGIP(3-30)NH2[D15E; H18A]-C16/16] (peptide)
peptide: EGTFISDYSIAMEK(Palmitoyl)IAQQDFVNWLLAQK-NH2
modifications: N-terminus assumed
SMILES: CCCCCCCCCCCCCCCC(=O)NCCCC[C@H](NC(=O)[C@H](CCC(=O)O)NC(=O)[C@H](CCSC)NC(=O)[C@H](C)NC(=O)[C@@H](NC(=O)[C@H](CO)NC(=O)[C@H](Cc1ccc(O)cc1)NC(=O)[C@H](CC(=O)O)NC(=O)[C@H](CO)NC(=O)[C@@H](NC(=O)[C@H](Cc1ccccc1)NC(=O)[C@@H](NC(=O)CNC(=O)[C@@H](N)CCC(=O)O)[C@@H](C)O)[C@@H](C)CC)[C@@H](C)CC)C(=O)N[C@H](C(=O)N[C@@H](C)C(=O)N[C@@H](CCC(N)=O)C(=O)N[C@@H](CCC(N)=O)C(=O)N[C@@H](CC(=O)O)C(=O)N[C@@H](Cc1ccccc1)C(=O)N[C@H](C(=O)N[C@@H](CC(N)=O)C(=O)N[C@@H](Cc1c[nH]c2ccccc12)C(=O)N[C@@H](CC(C)C)C(=O)N[C@@H](CC(C)C)C(=O)N[C@@H](C)C(=O)N[C@@H](CCC(N)=O)C(=O)N[C@@H](CCCCN)C(N)=O)C(C)C)[C@@H](C)CC
B6: AT165 [hGIP(3-30)NH2[H18K]-C16/18+y-aminobuturic acid] (peptide)
peptide: EGTFISDYSIAMDKIK([GABA-Palmitoyl])QQDFVNWLLAQK-NH2
modifications: N-terminus assumed
SMILES: CCCCCCCCCCCCCCCC(=O)NCCCC(=O)NCCCC[C@H](NC(=O)[C@@H](NC(=O)[C@H](CCCCN)NC(=O)[C@H](CC(=O)O)NC(=O)[C@H](CCSC)NC(=O)[C@H](C)NC(=O)[C@@H](NC(=O)[C@H](CO)NC(=O)[C@H](Cc1ccc(O)cc1)NC(=O)[C@H](CC(=O)O)NC(=O)[C@H](CO)NC(=O)[C@@H](NC(=O)[C@H](Cc1ccccc1)NC(=O)[C@@H](NC(=O)CNC(=O)[C@@H](N)CCC(=O)O)[C@@H](C)O)[C@@H](C)CC)[C@@H](C)CC)[C@@H](C)CC)C(=O)N[C@@H](CCC(N)=O)C(=O)N[C@@H](CCC(N)=O)C(=O)N[C@@H](CC(=O)O)C(=O)N[C@@H](Cc1ccccc1)C(=O)N[C@H](C(=O)N[C@@H](CC(N)=O)C(=O)N[C@@H](Cc1c[nH]c2ccccc12)C(=O)N[C@@H](CC(C)C)C(=O)N[C@@H](CC(C)C)C(=O)N[C@@H](C)C(=O)N[C@@H](CCC(N)=O)C(=O)N[C@@H](CCCCN)C(N)=O)C(C)C
B7: AT169 [hGIP(5-30)NH2[I7K]-C16diacid/7] (peptide)
peptide: TFK(C16 diacid)SDYSIAMDKIHQQDFVNWLLAQK-NH2
modifications: N-terminus assumed
SMILES: CC[C@H](C)[C@H](NC(=O)[C@H](CO)NC(=O)[C@H](Cc1ccc(O)cc1)NC(=O)[C@H](CC(=O)O)NC(=O)[C@H](CO)NC(=O)[C@H](CCCCNC(=O)CCCCCCCCCCCCCCC(=O)O)NC(=O)[C@H](Cc1ccccc1)NC(=O)[C@@H](N)[C@@H](C)O)C(=O)N[C@@H](C)C(=O)N[C@@H](CCSC)C(=O)N[C@@H](CC(=O)O)C(=O)N[C@@H](CCCCN)C(=O)N[C@H](C(=O)N[C@@H](Cc1c[nH]cn1)C(=O)N[C@@H](CCC(N)=O)C(=O)N[C@@H](CCC(N)=O)C(=O)N[C@@H](CC(=O)O)C(=O)N[C@@H](Cc1ccccc1)C(=O)N[C@H](C(=O)N[C@@H](CC(N)=O)C(=O)N[C@@H](Cc1c[nH]c2ccccc12)C(=O)N[C@@H](CC(C)C)C(=O)N[C@@H](CC(C)C)C(=O)N[C@@H](C)C(=O)N[C@@H](CCC(N)=O)C(=O)N[C@@H](CCCCN)C(N)=O)C(C)C)[C@@H](C)CC

Assays:
[1] = target: T1, human GIP receptor; assay: cell-based or functional assay
[2] = target: T1, human GIP receptor; assay: 125I-hGIP competition binding on hGIPR COS-7 cells; fold in affinity, paired, reference taken as GIP(3-30)NH2
Protocol: (§1) After incubation, the cells were washed twice in ice-cold binding buffer (+/−2% HSA) and lysed using 200 mM NaOH with 1% SDS for 30 min. Nonspecific binding was determined as the binding of radioactive ligand to untransfected cells.

[3] = target: T1, human GIP receptor; assay: 125I-hGIP(1-42) competition binding, COS-7 cells expressing human GIPR
Protocol: as §1

[4] = target: T1, human GIP receptor; assay: cell-based or functional assay; remark: listed apart in the source
[5] = target: T1, human GIP receptor; assay: 125I-hGIP(1-42) competition binding, COS-7 cells expressing human GIPR, 2% HSA
Protocol: as §1

[6] = target: T1, human GIP receptor; assay: 125I-hGIP(1-42) competition binding, COS-7 cells expressing human GIPR, 0.1% casein (no HSA)
Protocol: as §1

[7] = target: T2, human serum albumin (human, UniProt P02768 25-609); assay: 125I-human GIP competition binding on hGIPR COS-7 cells with and without 2% HSA; fold change of IC50 taken as HSA binding
T2 construct: also called HSA; human albumin
T2 sequence (P02768 25-609 limits assumed): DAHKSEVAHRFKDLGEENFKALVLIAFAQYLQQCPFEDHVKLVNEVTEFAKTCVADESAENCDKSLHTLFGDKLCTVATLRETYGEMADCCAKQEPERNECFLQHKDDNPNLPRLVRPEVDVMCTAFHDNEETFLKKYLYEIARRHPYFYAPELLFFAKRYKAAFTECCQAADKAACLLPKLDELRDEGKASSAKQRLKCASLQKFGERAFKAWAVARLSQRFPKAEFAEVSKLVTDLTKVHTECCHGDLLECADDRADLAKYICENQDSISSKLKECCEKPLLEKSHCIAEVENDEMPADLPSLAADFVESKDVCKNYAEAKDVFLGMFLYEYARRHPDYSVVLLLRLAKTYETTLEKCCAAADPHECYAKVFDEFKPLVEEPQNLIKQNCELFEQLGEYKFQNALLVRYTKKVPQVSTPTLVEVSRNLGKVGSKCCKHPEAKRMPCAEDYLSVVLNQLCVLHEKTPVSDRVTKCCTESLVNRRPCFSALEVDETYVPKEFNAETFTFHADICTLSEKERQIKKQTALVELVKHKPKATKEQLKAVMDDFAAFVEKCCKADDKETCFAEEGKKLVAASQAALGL
Protocol: as §1

Binder | IC50 [3] [nM] | cAMP accumulation Fold change (from GIP(3-30)NH2) [4] [fold] | cAMP accumulation IC50 [4] [nM] | cAMP accumulation logIC50 [4] | other results
B1 | 1580 | – | – | – | cAMP - antagonisme fold (paired) [1]: 8 fold; fold (paired) [2]: 74 fold
EGTFISDYSIAMDKIK([γGlu-AEEA-Palmitoyl])QQDFVNWLLAQK-NH2 (also: order of γGlu and AEEAc linker pieces on Lys not given here) [AT167 [hGIP(3-30)NH2[H18K]-C16/18+y-glutamic acid+8-amino-3,6-dioxaoctanoic acid]] | – | 14.8 | 4.4 | -8.36 log(M) | –
B2 | – | 6.3 | 10.2 | -7.99 log(M) | –
B3 | – | 2.9 | 22.9 | -7.64 log(M) | –
EGTFISDYSIAMDKIHQQDFVNWLLAQK-NH2 [hGIP(3-30)NH2] | – | – | 64.6 | -7.19 log(M) | –
B4 | 292 | – | – | – | IC50 [5]: 1730 nM; cAMP - antagonisme IC50 [1]: 19.4 nM; IC50 [6]: 110 nM
B5 | 6510 | – | – | – | cAMP - antagonisme IC50 [1]: 65 nM; cAMP - antagonisme fold (paired) [1]: 1.1 fold; fold (paired) [2]: 49 fold
B6 | – | 2.9 | 22.4 | -7.65 log(M) | –
B7 | – | – | – | – | binding result [7]: binds
